Non-standard residues stand in square brackets, D forms with d. No end group written: not given here. *: point of attachment. Bip(2'-Et-4'-OMe) = CCc1cc(OC)ccc1-c1ccc(C[C@H](N)C(=O)O)cc1; Nva(5-(3,5-Me2Ph)) = Cc1cc(C)cc(CCC[C@H](N)C(=O)O)c1; 2F‑APPA = 2-amino-5-(2-fluorophenyl)pentanoic acid; αMePhe(2-F) = C[C@](N)(Cc1ccccc1F)C(=O)O; hhPhe = N[C@@H](CCCc1ccccc1)C(=O)O; aThr = C[C@H](O)[C@H](N)C(=O)O; CNB = not defined here; Ac3c = NC1(C(=O)O)CC1; Aib = CC(C)(N)C(=O)O; Moc = COC(=O)*
Tests used:
human GLP-1 receptor = human GLP-1 receptor (human, UniProt P43220 24-463); experiment: cell-based or functional assay
human glucagon receptor = human glucagon receptor (human, UniProt P47871 26-477); experiment: cell-based or functional assay

human GLP-1 receptor, sequence (P43220 24-463): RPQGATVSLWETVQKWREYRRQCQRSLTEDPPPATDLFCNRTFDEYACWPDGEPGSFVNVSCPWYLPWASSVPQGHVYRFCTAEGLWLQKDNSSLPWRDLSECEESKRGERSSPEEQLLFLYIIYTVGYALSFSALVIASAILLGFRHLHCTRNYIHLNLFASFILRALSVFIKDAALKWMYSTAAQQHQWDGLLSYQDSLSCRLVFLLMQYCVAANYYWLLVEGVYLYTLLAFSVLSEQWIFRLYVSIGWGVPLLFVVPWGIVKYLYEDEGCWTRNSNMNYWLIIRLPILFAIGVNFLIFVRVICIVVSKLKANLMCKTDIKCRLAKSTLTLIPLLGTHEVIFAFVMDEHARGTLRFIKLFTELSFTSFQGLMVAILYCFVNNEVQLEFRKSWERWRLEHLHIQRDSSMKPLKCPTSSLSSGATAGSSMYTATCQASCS

| cAMP release, % activity, 1 nM (human GLP-1 receptor) | cAMP release, % activity, 10 nM (human GLP-1 receptor) | cAMP release, % activity, 100 nM (human GLP-1 receptor) | cAMP release, % activity, 1 µM (human GLP-1 receptor) | cAMP release, % activity, 10 µM (human GLP-1 receptor) | inhibition of cAMP production, 1 nM (human glucagon receptor) | inhibition of cAMP production, 10 nM (human glucagon receptor) | inhibition of cAMP production, 100 nM (human glucagon receptor) | inhibition of cAMP production, 1 µM (human glucagon receptor) | inhibition of cAMP production, 10 µM (human glucagon receptor) | Binder |
| --- | --- | --- | --- | --- | --- | --- | --- | --- | --- | --- |
| 99% | 99% | 99% | 99% | 99% | 9 pmol/ml/µg prt | 6 pmol/ml/µg prt | 5 pmol/ml/µg prt | 3 pmol/ml/µg prt | 0 pmol/ml/µg prt | H[Aib][CNB]G[aThr][αMePhe(2-F)][aThr]SD[Bip(2'-Et-4'-OMe)][hhPhe] (reading uncertain; also: reduced (CH2) bonds between 9-10 and 10-11) [Seq. ID. No. 202: H-Aib-(CNB)-G-T(allo)-(α-Me-2F-Phe)-T(allo)-SD-(CH2)-Bip(OMe)-(CH2)-(APPA)] |
| 96% | 99% | 99% | 99% | 99% | 6 pmol/ml/µg prt | 5 pmol/ml/µg prt | 2 pmol/ml/µg prt | 0 pmol/ml/µg prt | 0 pmol/ml/µg prt | H[Aib][CNB]G[aThr][αMePhe(2-F)][aThr]SD[Bip(2'-Et-4'-OMe)][2F‑APPA] (reading uncertain; also: reduced (CH2) bonds Z9-Z10 and Z10-Z11) [Seq. ID. No. 204: H-Aib-(CNB)-G-T(allo)-(α-Me-2F-Phe)-T(allo)-SD-(CH2)-Bip(OMe)-(CH2)-(2F-APPA)] |
| 96% | 99% | 99% | 99% | 99% | 4 pmol/ml/µg prt | 2 pmol/ml/µg prt | 0 pmol/ml/µg prt | 0 pmol/ml/µg prt | 0 pmol/ml/µg prt | Ac-H[Aib][CNB]GT[αMePhe(2-F)]TSD[Bip(2'-Et-4'-OMe)][hhPhe] (reading uncertain) [Seq. ID. No. 205: CH3CO-H-Aib-(CNB)-GT-(α-Me-2F-Phe)-TSD-Bip(OMe)-(APPA)] |
| 39% | 80% | 86% | 95% | 98% | 0 pmol/ml/µg prt | 0 pmol/ml/µg prt | 0 pmol/ml/µg prt | 0 pmol/ml/µg prt | 0 pmol/ml/µg prt | Moc-H[Aib][CNB]GT[αMePhe(2-F)]TSD[Bip(2'-Et-4'-OMe)][hhPhe] (reading uncertain) [Seq. ID. No. 206: CH3OCO-H-Aib-(CNB)-GT-(α-Me-2F-Phe)-TSD-Bip(OMe)-(APPA)] |
| 99% | 99% | 99% | 99% | 99% | 17 pmol/ml/µg prt | 15 pmol/ml/µg prt | 12 pmol/ml/µg prt | 8 pmol/ml/µg prt | 6 pmol/ml/µg prt | H[Ac3c]QGTFTSD[Bip(2'-Et-4'-OMe)][Nva(5-(3,5-Me2Ph))] [Seq. ID. No. 22: H-(ACP)-QGTFTSD-Bip(OMe)-(ADMP)] |
| 40% | 81% | 89% | 96% | 99% | 0 pmol/ml/µg prt | 0 pmol/ml/µg prt | 0 pmol/ml/µg prt | 0 pmol/ml/µg prt | 0 pmol/ml/µg prt | Ac-H[Aib][CNB]GT[αMePhe(2-F)]TSD[Bip(2'-Et-4'-OMe)][2F‑APPA] (reading uncertain) [Seq. ID. No. 207: CH3CO-H-Aib-(CNB)-GT-(α-Me-2F-Phe)-TSD-Bip(OMe)-(2F-APPA)] |

— US20120021972A1 (CADILA HEALTHCARE, published 2012)
